Data taken from patent US20240124586A1 (WUXI BIOLOGICS IRELAND, published 2024).

Tests used:
[1] = molecular target: T1, ECD of human CTLA-4 (SPR analyte) (human, UniProt P16410 36-161); assay: SPR (Biacore T200), antibody captured by anti-human Fc, CTLA-4 ECD as analyte
T1 construct: extracellular domain
Protocol: SPR technology was used to measure the on-rate constant (ka) and off-rate constant (kd) of the antibodies to ECD of CTLA-4 or PD-1. The affinity constant (KD) was consequently determined.
Biacore T200, Series S Sensor Chip CM5, Amine Coupling Kit, and 10×HBS-EP were purchased from GE Healthcare. Goat anti-human IgG Fc antibody was purchased from Jackson ImmunoResearch Lab (catalog number 109-005-098). In immobilization step, the activation buffer was prepared by mixing 400 mM EDC and 100 mM NHS immediately prior to injection. The CM5 sensor chip was activated for 420 s with the activation buffer. 30 μg/mL of goat anti-human IgG Fcγ antibody in 10 mM NaAc (pH 4.5) was then injected to Fc1-Fc4 channels for 200 s at a flow rate of 5 μL/min. The chip was deactivated by 1 M ethanolamine-HCl (GE). Then the antibodies were captured on the chip. Briefly, 4 μg/mL antibodies in running buffer (HBS-EP+) was injected individually to Fc3 channel for 30 s at a flow rate of […]. […] Regeneration buffer (10 mM Glycine pH 1.5) was injected at 10 μL min for 30 s following every dissociation phase.

[2] = molecular target: T2, biotinylated human CTLA-4.ECD.hFc (W316-hPro1.ECD.hFc.Biotin) (human, UniProt P16410 36-161, biotin-labelled (site not stated)); assay: competitive FACS, biotinylated CTLA-4.ECD.hFc on human CD80 CHO-K1 cells (competitor: CD80)
T2 construct: extracellular domain; In-house protein; also called hCTLA-4.ECD.hFc-Biotin; human CTLA-4 protein
T2 sequence (P16410 36-161): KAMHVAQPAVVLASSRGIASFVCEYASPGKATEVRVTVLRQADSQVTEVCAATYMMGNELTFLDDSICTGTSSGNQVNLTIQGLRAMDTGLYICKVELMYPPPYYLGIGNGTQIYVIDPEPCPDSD
Protocol: Competitive FACS was used to test whether the antibodies could block human or cynomolgus CTLA-4 binding to hCD80 on cell surface. […] Then the mixtures of antibody and CTLA-4 were added to the cells and incubated for 1 hour at 4° C. The cells were washed two times with 200 μl FACS washing buffer (DPBS containing 1% BSA). Streptavidin PE (BD Pharmingen-554061) 1 to 600 diluted in FACS buffer was added to the cells and incubated at 4° C. for 1 hour. Additional washing steps were performed two times with 200 μL FACS washing buffer followed by centrifugation at 1500 rpm for 4 minutes at 4° C. Finally, the cells were resuspended in 100 μL FACS washing buffer and fluorescence values were measured by flow cytometry and analyzed by FlowJo.

T1 sequence (P16410 36-161): as above

B1: W3248-U6T5.G25-1.uIgG4.SP, bispecific anti-PD-1 x CTLA-4 (bispecific antibody)
heavy: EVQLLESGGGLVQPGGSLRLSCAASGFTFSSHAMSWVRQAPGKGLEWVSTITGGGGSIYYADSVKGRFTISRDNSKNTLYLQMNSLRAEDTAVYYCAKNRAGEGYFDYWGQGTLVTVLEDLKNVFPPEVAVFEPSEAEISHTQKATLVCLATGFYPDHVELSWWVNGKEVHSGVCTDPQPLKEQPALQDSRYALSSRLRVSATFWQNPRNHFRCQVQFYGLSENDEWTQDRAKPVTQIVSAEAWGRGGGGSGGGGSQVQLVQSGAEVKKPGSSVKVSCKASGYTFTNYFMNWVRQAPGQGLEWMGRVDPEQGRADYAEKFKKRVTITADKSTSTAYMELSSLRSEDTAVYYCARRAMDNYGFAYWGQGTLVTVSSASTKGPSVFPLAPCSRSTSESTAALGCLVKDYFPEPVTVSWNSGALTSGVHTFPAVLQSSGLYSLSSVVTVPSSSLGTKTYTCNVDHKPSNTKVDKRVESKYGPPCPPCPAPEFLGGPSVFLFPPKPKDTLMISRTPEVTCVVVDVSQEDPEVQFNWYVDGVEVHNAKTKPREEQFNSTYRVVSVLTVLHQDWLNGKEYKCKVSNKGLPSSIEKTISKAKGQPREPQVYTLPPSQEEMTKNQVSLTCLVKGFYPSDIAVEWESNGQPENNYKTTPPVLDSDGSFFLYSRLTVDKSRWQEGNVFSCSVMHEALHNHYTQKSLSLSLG
light 1: SYELTQPLSVSVALGQTARITCGGDNIGNKDVHWYQQKPGQAPVLVIYRDSNRPSGIPEGFSGSNSGNTATLTISRAQAGDEADYYCQVWDSIWVFGGGTKLTVLPDIQNPDPAVYQLRDSKSSDKSVCLFTDFDSQTQVSQSKDSDVYITDKCVLDMRSMDFKSNSAVAWSQKSDFACANAFQNSIIPEDTFFPSPESS
light 2: EIVLTQSPDFQSVTPKEKVTITCSANSALSYMYWYQQKPDQSPKLWVHGTSNLASGVPSRFSGSGSGTDFTLTINSLEAEDAATYYCHHWSNTQWTFGGGTKVEIKRTVAAPSVFIFPPSDEQLKSGTASVVCLLNNFYPREAKVQWKVDNALQSGNSQESVTEQDSKDSTYSLSSTLTLSKADYEKHKVYACEVTHQGLSSPVTKSFNRGEC
notes: IgG4 (S228P); also called WBP3248-U6T5.G25-1-uIgG4.SP; U6T5.G25.IgG4
In the case of B1, the Kd [1] is reported as 0.357 nM and the IC50 [2] is reported as 0.758 nM.
